In paper PMC2839365 one finds dH data, which are given here for 11 substances.

The target in the test is ZU5 domain of ankyrin. The experiment in a line: ITC.
Sequence of ZU5 domain of ankyrin (P16157 913-1068): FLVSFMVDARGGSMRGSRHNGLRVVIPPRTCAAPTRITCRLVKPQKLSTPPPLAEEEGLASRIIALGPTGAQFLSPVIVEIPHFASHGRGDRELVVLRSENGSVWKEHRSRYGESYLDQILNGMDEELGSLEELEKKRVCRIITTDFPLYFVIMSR
Substance βI14-15 Y1866A (domain or fragment) registered a dH of 10.6 kJ/mol.
The same measure for βI14-15 E1708A (domain or fragment): 13.7 kJ/mol.
The figure for βI14-15 E1710A (domain or fragment) is 15.6 kJ/mol.
The same measure for “wild type βI-spectrin 14-15 di-repeat (domain or fragment)”: 25 kJ/mol.
The substance βI14-15 A1867P (domain or fragment) registered a dH of 3.78 kJ/mol.
The figure for βI14-15 T1788A (domain or fragment) is 8.69 kJ/mol; for βI14-15 D1781A (domain or fragment) it is 23.1 kJ/mol; for βI14-15 D1701A (domain or fragment) it is 19.4 kJ/mol.
The same measure for βI14-15 E1784A (domain or fragment): 21.8 kJ/mol.
The figure for βI14-15 D1700A (domain or fragment) is 18.5 kJ/mol.
βI14-15 E1703A (domain or fragment) returned a dH of 20.2 kJ/mol.
